Experimental findings from the supplement of paper PMC10567573 are described below.

The series is described as follows: protein stability index of a GFP-peptide fusion (GPS, HEK-293T) (PSI 1-6); higher = more stable.
The mark [1] stands for this setting: treatment: DMSO, c terminus: a fixed tail appended.
The mark [2] stands for this setting: treatment: MLN4924 1 uM, 8 h, c terminus: a fixed tail appended.

± gives the standard deviation.
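Also: 24-mer peptide tiles fused after GFP, lentivirally expressed, FACS-sorted into six equal bins by GFP/DsRed ratio, decoded by Illumina sequencing, PSI is the read-weighted mean bin number.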

With TLNVIELNVQKTVDYTGQAKAQVR [STX11], the protein stability index is, setting by setting: under setting [1], 2.93 ± 0.28; under setting [2], 3.19 ± 0.31.

On to TLPEYRVSVPENLPVGTQLLTVTA [PCDHGA10], for which the protein stability index is, setting by setting: under setting [1], 3.36 ± 0.29; under setting [2], 3.24 ± 0.3.

Turning to TLSGTCLLIANKRQSYDISIVAQV [CARM1], the protein stability index is, setting by setting: under setting [1], 2.38 ± 0.69; under setting [2], 2.68 ± 1.5.

As to TLSNPQMSLEGTEKASWLGEQPQF [ELF3], the protein stability index reads like this: under setting [1], 4.26 ± 0.34; under setting [2], 4.21 ± 0.37.

As to TMDGEGTLFQTESPQSGSILTEET [PBXIP1], the protein stability index was found to be 5.44 ± 0.066 under setting [1] and 5.43 ± 0.17 under setting [2].

Sequence TMTSSQSMNFSMMSTNTVGLGLPM [CLINT1] had a protein stability index under setting [1] of 3.02 ± 0.18 and a protein stability index under setting [2] of 2.68 ± 0.083.

For the sequence TNETNVNIPQMADTLFERATNSSW [SNAP91], the protein stability index runs as follows: under setting [1], 3.77 ± 0.11; under setting [2], 3.99 ± 0.2.

Regarding TNLKETYRCIREARYTMPSSLLAP [PLK2], the protein stability index reads like this: under setting [1], 2.34 ± 0.54; under setting [2], 2.3 ± 0.08.

As to TPLASSTDHQTPPTSPVQGTTPQI [HDAC6], the protein stability index was determined as 5.17 ± 0.16 under setting [1] and 5.03 ± 0.16 under setting [2].

Take TQEQARKEFQQVFIPECNDDGTYS [SMOC2]: the protein stability index under setting [1] turned out to be 4.94 ± 0.27 and the protein stability index under setting [2] worked out at 4.84 ± 0.18.

For the sequence TQSWSSQSSFNSLQRVPSYDSFDS [ETS1], the protein stability index reads like this: under setting [1], 4.06 ± 0.2; under setting [2], 3.98 ± 0.22.

With TRAILRERICSEEERAKAKHLARQ [CHCHD3], the protein stability index under setting [1] came out at 3.52 ± 0.33 and the protein stability index under setting [2] was 3.76 ± 0.27.

TRGWVQTLARMSRRTRGPVERAAA [C6orf223]: the protein stability index came to 3.23 ± 0.22 under setting [1] and 3.57 ± 0.098 under setting [2].

On to TRKREDAEHNLVLFRKDVDDATLS [PRPH], for which the protein stability index reads like this: under setting [1], 4.77 ± 0.18; under setting [2], 4.73 ± 0.097.

TRLEQEIATYRSLLEGQDAKMAGI [KRT15] showed a protein stability index under setting [1] of 3.7 ± 0.22 and a protein stability index under setting [2] of 3.72 ± 0.18.

For the sequence TRLLLQFTQPQQTSFALERNLRTQ [C8orf76], the protein stability index was 2.33 ± 0.46 under setting [1] and 2.52 ± 0.27 under setting [2].

On to TRQNGIQTNKPALRAVRQRSEFTL [STX5], for which the protein stability index reads like this: under setting [1], 3.19 ± 0.32; under setting [2], 3.37 ± 0.39.

On to TSLGLTYDGMLSDVQSMPKTGILI [MAGEA10], for which the protein stability index under setting [1] is 1.93 ± 0.39 and the protein stability index under setting [2] stood at 2.13 ± 0.41.

For the sequence TSRGKLGGQDSFESIESYDSCDRL [ETS1], the protein stability index is, setting by setting: under setting [1], 4.62 ± 0.16; under setting [2], 4.68 ± 0.13.

Consider TSTPEDKESGQEGVDSMAEEGTSD [SMARCE1], for which the protein stability index runs as follows: under setting [1], 5.65 ± 0.25; under setting [2], 5.51 ± 0.33.

With TVEKDESHAGKVVLRSWYEKNKHI [FAM50A], the protein stability index is, setting by setting: under setting [1], 3.74 ± 0.33; under setting [2], 3.87 ± 0.18.

TVFCLVVIFALCWFPLHLSRILKK [EDNRA] yielded a protein stability index under setting [1] of 2.41 ± 0.61 and a protein stability index under setting [2] of 2.42 ± 1.3.

In the case of TVGVYEAAKLLNVDPDNVVLCLLA [GADD45A], the protein stability index worked out at 2.26 ± 0.17 under setting [1] and 2.4 ± 0.22 under setting [2].

On to TVTSLQVPVLKPMDLMVEVSPRRI [PPP2R2C], for which the protein stability index is, setting by setting: under setting [1], 2.52 ± 0.18; under setting [2], 2.65 ± 0.32.

As to TWMLEVCEEQKCEEEVFPLAMNYL [CCND2], the protein stability index worked out at 2.84 ± 0.23 under setting [1] and 2.89 ± 0.3 under setting [2].

For TYAVRKLDNTKFRSHEGETAYIRV [SRSF1], the protein stability index reads like this: under setting [1], 2.46 ± 0.39; under setting [2], 2.38 ± 0.3.

Take VAERKYTQEQARKEFQQVFIPECN [SMOC2]: the protein stability index is, setting by setting: under setting [1], 4.38 ± 0.19; under setting [2], 4.41 ± 0.23.

Consider VCQRMLNQGFLKVERYHNLCQKQV [FBXO28], for which the protein stability index was determined as 2.18 ± 0.36 under setting [1] and 2.37 ± 0.27 under setting [2].

Turning to VCYFTNWAQYRQGEARFLPKDLDP [CHIT1], the protein stability index is 2.32 ± 0.14 under setting [1] and 2.34 ± 0.17 under setting [2].

As to VEEILDRENKRMADSLASKVTRLK [BET1L], the protein stability index is, setting by setting: under setting [1], 4.31 ± 0.4; under setting [2], 4.52 ± 0.23.

For the sequence VEFNHTGELLATGDKGGRVVIFQR [PPP2R2C], the protein stability index was 2.54 ± 0.59 under setting [1] and 2.85 ± 0.44 under setting [2].

As for VEGAMHIQECVPEDLELKKKIFAQ [CRYL1], the protein stability index by setting is: under setting [1], 4.74 ± 0.45; under setting [2], 4.27 ± 0.2.

Turning to VEKLKQMQEFFGLKVTGKPDAETL [MMP1], the protein stability index is, setting by setting: under setting [1], 3.63 ± 0.23; under setting [2], 3.83 ± 0.16.

For the sequence VELARYLVDVRQEQLQGFNTRVRE [DNAAF3], the protein stability index runs as follows: under setting [1], 2.54 ± 0.36; under setting [2], 2.77 ± 0.13.

As for VEMESEEQIAERKRKMVSWEASSL [KMT2E], the protein stability index is, setting by setting: under setting [1], 3.67 ± 0.22; under setting [2], 3.87 ± 0.73.

Regarding VENKEKDSNMPHFQTLQAIVSHFQ [CEP70], the protein stability index is, setting by setting: under setting [1], 2.89 ± 0.27; under setting [2], 3.18 ± 0.36.

As to VFWPQLPNGLEAAYEFADRDEVRF [MMP1], the protein stability index by setting is: under setting [1], 2.86 ± 0.26; under setting [2], 3.1 ± 0.3.

Take VGGATLAQTTSEAAMEGATLDQTT [HDAC6]: the protein stability index is, setting by setting: under setting [1], 5.44 ± 0.11; under setting [2], 5.39 ± 0.26.

VGWWALLALVTLLSFATRFHRLDE [POMT2]: the protein stability index runs as follows: under setting [1], 3.42 ± 0.39; under setting [2], 2.98 ± 0.39.

The sequence VHFSEAIEKFIREPSLKATMGLAG [ALG2] gave a protein stability index under setting [1] of 2.33 ± 0.27 and a protein stability index under setting [2] of 2.43 ± 0.24.

VHIETFTTRHGEVGSALHRESFTS [C10orf62]: the protein stability index reads like this: under setting [1], 2.57 ± 0.35; under setting [2], 2.47 ± 0.58.

Consider VHNIVIFMRTSVKISYIGLMTQSS [TMEM106C], for which the protein stability index is, setting by setting: under setting [1], 2.83 ± 0.38; under setting [2], 3.03 ± 0.32.

For the sequence VIDLAESLVADNCVTLVWRMPDED [FSD1], the protein stability index under setting [1] came to 2.35 ± 0.33 and the protein stability index under setting [2] worked out at 2.79 ± 0.27.

As for VIKISYSTPQGKGEVVKIPSRVHG [PWWP2B], the protein stability index by setting is: under setting [1], 2.5 ± 0.2; under setting [2], 2.79 ± 0.3.

VISLLNEPNTFSPANVDASVMFRK [UBE2R2]: the protein stability index reads like this: under setting [1], 2.79 ± 0.31; under setting [2], 3.04 ± 0.2.

With VITYILLSGASPFLGETKQETLTN [DAPK3], the protein stability index reads like this: under setting [1], 2.75 ± 0.26; under setting [2], 2.86 ± 0.4.

With VIYCLGGYDGLNILNSVEKYDPHT [KLHL12], the protein stability index under setting [1] came out at 2.39 ± 0.54 and the protein stability index under setting [2] came out at 2.18 ± 0.39.

With VKKSCWTEEEDRIICEAHKVLGNR [MYBL2], the protein stability index under setting [1] stood at 3.33 ± 0.52 and the protein stability index under setting [2] is 3.58 ± 0.34.

As to VLDCRPYLAFAASNVRGSLNVNLN [DUSP5], the protein stability index was 2.19 ± 0.34 under setting [1] and 1.99 ± 0.39 under setting [2].

VLDELTLARADLEMQIENLKEELA [KRT17]: the protein stability index stood at 3.04 ± 0.29 under setting [1] and 3.1 ± 0.37 under setting [2].

Turning to VLDLEARGYIKPHVDSIKFCGATI [ALKBH7], the protein stability index reads like this: under setting [1], 2.14 ± 0.26; under setting [2], 2.15 ± 0.42.

On to VLEQFLTILPQEIQSRVQELHPES [ZNF263], for which the protein stability index reads like this: under setting [1], 2.56 ± 0.31; under setting [2], 2.53 ± 0.39.

Regarding VLGEDVIVNDELYLNGASVLPHKS [GMPPB], the protein stability index by setting is: under setting [1], 4.23 ± 0.28; under setting [2], 4.31 ± 0.18.

As for VLGIQVKCFHEIITIGYRVYHSYD [CDS1], the protein stability index turned out to be 3.25 ± 0.25 under setting [1] and 3.04 ± 0.17 under setting [2].

The sequence VLLQTSPYHVDSLLQLSDACRFQE [TCF25] registered a protein stability index under setting [1] of 2.22 ± 0.41 and a protein stability index under setting [2] of 2.41 ± 0.56.

For VNAVRKLLIEGRSVNEHTEEGESL [ANKRD17], the protein stability index came to 4.73 ± 0.24 under setting [1] and 4.79 ± 0.35 under setting [2].

On to VPARDGTSCKLTDLRGVCVSGKCE [ADAMTSL2], for which the protein stability index was found to be 3.95 ± 0.23 under setting [1] and 3.92 ± 0.29 under setting [2].

As to VPPKDSAPKDSAPQDLAPQVSAHH [TBC1D10A], the protein stability index runs as follows: under setting [1], 5.47 ± 0.19; under setting [2], 5.4 ± 0.18.

VQFVFDAVTDVIIKNNLKDCGLF [GNAI1]: the protein stability index runs as follows: (treatment: DMSO, c terminus: native) 2.68 ± 0.81; (treatment: MLN4924 1 uM, 8 h, c terminus: native) 2.61 ± 0.73.

As to VQLQRIPLSAVYRICLGKFTFPGM [TPRG1], the protein stability index was determined as 2.65 ± 0.69 under setting [1] and 2.21 ± 0.43 under setting [2].

In turn, VQYGAGVACSETAPDLVLNAEMVQ [LOXL2] displayed a protein stability index under setting [1] of 4.108 ± 0.007 and a protein stability index under setting [2] of 4.47 ± 0.25.

With VRLQERTSGGLLSEAPNEKLFFVD [NOP53], the protein stability index under setting [1] came out at 3.5 ± 0.32 and the protein stability index under setting [2] was 3.34 ± 0.33.

With VRPGTPPDFILKVVIDKHPVRFFV [CTDNEP1], the protein stability index by setting is: under setting [1], 2.95 ± 0.49; under setting [2], 2.92 ± 0.42.

Regarding VRYNRVGILRRILRTLRDFPAEER [ANKRD9], the protein stability index worked out at 2.4 ± 0.16 under setting [1] and 2.6 ± 0.56 under setting [2].

For the sequence VSGDLTKEDIDLIDILWRQDIDLG [NFE2L1], the protein stability index under setting [1] was 3.02 ± 0.78 and the protein stability index under setting [2] amounted to 3.58 ± 0.61.

Sequence VSGFCRSPPVMVAGGRVFVLPCIQ [FLOT1] displayed a protein stability index under setting [1] of 2.43 ± 0.38 and a protein stability index under setting [2] of 2.45 ± 0.5.

For VSGINHDVTSGDHGDYFRLLLPGI [CPN1], the protein stability index runs as follows: under setting [1], 2.46 ± 0.28; under setting [2], 2.23 ± 0.38.

For VSTMRCKTRQKSEKQMEEKRRANQ [PPEF2], the protein stability index by setting is: under setting [1], 4.41 ± 0.7; under setting [2], 4.79 ± 0.24.

Take VTAEVDLFGDAFAASPGEAPAASE [SNAP91]: the protein stability index is, setting by setting: under setting [1], 5.02 ± 0.26; under setting [2], 5.02 ± 0.16.

Turning to VTFKLDDGAISAHKPLLICSCEWM [RHOBTB1], the protein stability index under setting [1] was determined as 3.08 ± 0.33 and the protein stability index under setting [2] came to 2.56 ± 0.62.

As to VTKLCVQFLNDQISVQNYKQVCKI [KLHL14], the protein stability index reads like this: under setting [1], 2.76 ± 0.46; under setting [2], 2.42 ± 0.56.

As for VTLNFNVPGEFKQDVTVVGSAGRL [GFOD1], the protein stability index by setting is: under setting [1], 2.23 ± 0.74; under setting [2], 2.15 ± 0.37.
